Our source for the EC50 values is patent publication US20260234252A1 (published 2026).

What is called EC50 is the midpoint of the concentration-response curve. The low end stands for greater potency, the high end for weaker potency.

In test [1] the target is T1, Vβ17 on human CD8+ T cells (human).
T1 chain: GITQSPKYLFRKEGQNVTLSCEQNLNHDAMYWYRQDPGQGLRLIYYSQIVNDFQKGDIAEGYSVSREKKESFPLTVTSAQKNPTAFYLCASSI
The experiment in a line: FACS. (In flow cytometry, cells or beads pass a laser one at a time.)

In test [2] the target is T1, Vβ17 on human CD8+ T cells. The experiment in a line: FACS.

Where “and” joins values, the source holds several entries; their conditions need not be identical. Equal entries are not always repeated. Where two headings read alike, the source gives them in different places.

B1: VB13 (Vβ17×Null) bispecific antibody (bispecific antibody)
heavy 1: QVQLQESGPGLVKPSETLSLTCTVSGYSITSGYFWNWIRQPPGKGLEWIGYISYDGSNNYNPSLKSRVTISRDTSKNQFSLKLSSVTAADTAVYYCASPSPGTGYAVDYWGQGTLVTVSSASTKGPSVFPLAPCSRSTSESTAALGCLVKDYFPEPVTVSWNSGALTSGVHTFPAVLQSSGLYSLSSVVTVPSSSLGTKTYTCNVDHKPSNTKVDKRVESKYGPPCPPCPAPEAAGGPSVFLFPPKPKDTLMISRTPEVTCVVVDVSQEDPEVQFNWYVDGVEVHNAKTKPREEQFNSTYRVVSVLTVLHQDWLNGKEYKCKVSNKGLPSSIEKTISKAKGQPREPQVYTLPPSQEEMTKNQVSLSCAVKGFYPSDIAVEWESNGQPENNYKTTPPVLDSDGSFFLVSRLTVDKSRWQEGNVFSCSVMHEALHNRFTQKSLSLSLGK
light 1: DIQMTQSPSSLSASVGDRVTITCRSSQSLVHSNGNTYLHWYQQKPGKAPKFLIYKVSNRFSGVPSRFSGSGSGTDFTLTISSLQPEDFATYYCSQSTHVPFTFGQGTKLEIKRTVAAPSVFIFPPSDEQLKSGTASVVCLLNNFYPREAKVQWKVDNALQSGNSQESVTEQDSKDSTYSLSSTLTLSKADYEKHKVYACEVTHQGLSSPVTKSFNRGEC
heavy 2: not shown
light 2: not shown
Take B1: the EC50 in test [1] was 12.6 nM; in test [2] it was 1.4 nM and 1.5 nM.

B2: VB11 (anti-Vβ17/anti-CD123) bispecific antibody (bispecific antibody)
heavy 1: B1 heavy 1
light 1: B1 light 1
heavy 2: EVQLVQSGAEVKKPGESLKISCKGSGYSFTSYWISWVRQMPGKGLEWMGIIDPSDSDTRYSPSFQGQVTISADKSISTAYLQWSSLKASDTAMYYCARGDGSTDLDYWGQGTLVTVSSASTKGPSVFPLAPCSRSTSESTAALGCLVKDYFPEPVTVSWNSGALTSGVHTFPAVLQSSGLYSLSSVVTVPSSSLGTKTYTCNVDHKPSNTKVDKRVESKYGPPCPPCPAPEAAGGPSVFLFPPKPKDTLMISRTPEVTCVVVDVSQEDPEVQFNWYVDGVEVHNAKTKPREEQFNSTYRVVSVLTVLHQDWLNGKEYKCKVSNKGLPSSIEKTISKAKGQPREPQVYTLPPSQEEMTKNQVSLWCLVKGFYPSDIAVEWESNGQPENNYKTTPPVLDSDGSFFLYSRLTVDKSRWQEGNVFSCSVMHEALHNHYTQKSLSLSLGK
light 2: EIVLTQSPGTLSLSPGERATLSCRASQSVSSSYLAWYQQKPGQAPRLLIYGASSRATGIPDRFSGSGSGTDFTLTISRLEPEDFAVYYCQQDYGFPWTFGQGTKVEIKRTVAAPSVFIFPPSDEQLKSGTASVVCLLNNFYPREAKVQWKVDNALQSGNSQESVTEQDSKDSTYSLSSTLTLSKADYEKHKVYACEVTHQGLSSPVTKSFNRGEC
B2: in test [2], the EC50 was 0.8 nM and 1.26 nM.
